Test results: CN113512113A (THE FIRST AFFILIATED HOSPITAL COLLEGE OF MEDICINE ZHEJIANG …, dated 2021)

Biological target: SARS-Cov-2的生物素化RBD(NC_045512) (SARS-CoV-2, UniProt P0DTC2 319-541)

B1: CZ-D7 (antibody, V domains shown)
VH: QVQLVQSGAEVKTPGSSVKVSCKASGGSFSNYAISWVRQAPGQGLEWMGRIIATLGISNYAQKFQGRVTMTADKSTSTAYMELSSLRSEDTAVYYCASPITNFGVLIEVDAFHIWGQGTMVTVSS
VL: EIVLTQSPFTLSLSPGERATLSCGASQSVSSSYLAWYQQKPGLAPRLLIYDGSSRATDIPDRFSGSGSGTDFTLTISRLEPEDFAMYYCQQYSTSPLTFGGGTKVEIKR
For B1, the Kd was less than 0.001 nM.

B2: SW-B1 (antibody, V domains shown)
VH: QVQLVQSGAEVKKPGASVKVSCTASGDTFTTYYMNWMRQAPGQGLEWMGIINPSGGSTSYAQKFQGRVTMTRDTSRSTVYMELSSLRSEDTAVYYCATPSLEEAEGGPQLAFDIWGQGTMVTVSS
VL: not shown
With B2 the Kd was 0.0943 nM.

B3: SW-A9 (antibody, V domains shown)
VH: QMQLVQSGPEVKKPGTSVKVSCKASGFTFTNSAMQWVRQARGQRLEWVGWIVVASGNANSARRFHDRVTITSDMSTSTAYLELSSLRSEDTAVYYCALNHCSNTTCLDGFDIWGQGTMVSVSS
VL: EIVLTQSPVTLSLSPGERATLSCRASQSVRNSLLAWYQQKPGQAPRLLIYAASSRATGIPDRFSGSGSGTDFTLTISRLEPEDFVVYYCQQHGSSPPWTFGQGTKVEFKR
With B3 the Kd was less than 0.001 nM.
